In US20100081624A1, “SELECTIVE PEPTIDES THAT INHIBIT THE BIOLOGICAL ACTIVITY OF CALCINEURIN” (Consejo Superior de Investigaciones Cientficas, priority 2005, published 2010) one finds percentage of cells with cytosolic NFATc2 staining after calcium ionophore data, which are given here for 2 substances.

For the test, the target named is Calcineurin (CN) of HeLa cells, endogenous. The test can be described thus: cell-based or functional assay.

For the substance GFP-LxVPc1 fusion protein, the percentage of cells with cytosolic NFATc2 staining after calcium ionophore was determined as 77%.

GFP-VIVIT fusion protein: the percentage of cells with cytosolic NFATc2 staining after calcium ionophore stood at 92%.
